Laboratory results reported in publication PMC3900414.

Molecular target: T1, hPus1 (79-408) (Homo sapiens, UniProt Q9Y606 79-408)
T1 sequence: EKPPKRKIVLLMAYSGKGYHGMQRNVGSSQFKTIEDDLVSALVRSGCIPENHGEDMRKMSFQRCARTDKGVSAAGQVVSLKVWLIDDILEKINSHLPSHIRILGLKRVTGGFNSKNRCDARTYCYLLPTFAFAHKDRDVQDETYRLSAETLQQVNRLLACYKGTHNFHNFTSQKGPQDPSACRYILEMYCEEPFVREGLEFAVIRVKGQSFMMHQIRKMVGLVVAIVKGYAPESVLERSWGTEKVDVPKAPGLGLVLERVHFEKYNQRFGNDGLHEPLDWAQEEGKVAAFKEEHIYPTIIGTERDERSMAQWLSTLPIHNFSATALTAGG
Assay: size exclusion chromatography

GAUGGACUUGAAAUCCAUUGGCGCAGGUUCGAAUCCUGC (structured_RNA) [minimal tRNASer (nt 26-65), unlabeled]: binds.
